Measured values as given in PMC9878632 (ACS Omega, 2023).

What was measured:
[1] = target: the molecule itself; assay: crystal structure
[2] = target: the molecule itself; assay: AUC

B1: PYCR1 T171M variant (human Δ1-pyrroline-5-carboxylate reductase 1, Thr171Met) (enzyme, UniProt P32322 1-300, looked up)
chain: MSVGFIGAGQLAFALAKGFTAAGVLAAHKIMASSPDMDLATVSALRKMGVKLTPHNKETVQHSDVLFLAVKPHIIPFILDEIGADIEDRHIVVSCAAGVTISSIEKKLSAFRPAPRVIRCMTNTPVVVREGATVYATGTHAQVEDGRLMEQLLSSVGFCTEVEEDLIDAVMGLSGSGPAYAFTALDALADGGVKMGLPRRLAVRLGAQALLGAAKMLLHSEQHPGQLKDNVSSPGGATIHALHVLESGGFRSLLINAVEASCIRTRELQSMADQEQVSPAAIKKTILDKVKLDSPAGTAL
[1]
  stoichiometry N: 10
[2]
  stoichiometry N: 2
